According to patent US20230113734A1 (CELLTRION, published 2023):
Residue numbers refer to the chain shown, from its start.

B1: No. 266 scFv-Fc antibody fragment (scFv, V domains shown)
VH: EVQLVESGGGLVQPGGSLRLSCAASGFTVSSNYMTWVRQAPGKGLEWVSVIYSGGSTFYADSVKGRFTISRDNSKNTLYLQMNSLRAEDTAVYYCARDLVVYGMDVWGQGTTVTVSS
VL: ELELTQPPSVSVAPGKTARITCGGNNIGSKSVHWYQQKPGQAPVLVIYYDSDRPSGIPERFSGSNSGNTATLTISRVEAGDEADYYCQVRDSSSDHPVFGGGTKVTVL
B2: No. 276 scFv-Fc antibody fragment (scFv, V domains shown)
VH: B1 VH with E1Q, E6Q
VL: ELELTQPPSASGAPGQRVTISCSGSSSNIGGSDVGWYQHLPGMAPRLLIYKSNQRPSGVPDRFSASKSGTSASLAISGLQSEDEGDYYCATWDDRLNWVFGGGTKVTVL
B3: No. 268 scFv-Fc antibody fragment (scFv, V domains shown)
VH: B1 VH with E1Q, E6Q, L11V, G16R
VL: ELELTQPPSVSGAPGQRVTISCTGSDSNIGAGYDVHWYQQLPGTAPKLLIYNNNNRPSGVPDRFSGSKSGTSASLAITGLQAEDEADYFCQSSDSGLTGWVFGGGTKLTVL
B4: No. 139 antibody (full IgG) (antibody, V domains shown)
VH: QITLKESGPTLVKPTQTLTLTCSFSGFSLSTSGVGVGWIRQPPGKALEWLALIDWDDNKYHTTSLKTRLTISKDTSKNQVVLTMTNMDPVDTATYYCARIPGFLRYRNRYYYYGMDVWGQGTTVTVSS
VL: ELVLTQPPSVSAAPGQKVTISCSGSSSNIGNNYVSWYQQLPGTAPKLLIYDNNKRPSGIPDRFSGSKSGTSATLGITGLQTGDEADYYCGTWDSSLSAGVFGGGTELTVL
notes: also called CT-P59

Assays:
[1] = biological target: SARS-CoV-2 S protein (spike protein) (SARS-CoV-2, UniProt P0DTC2 16-1213); assay: ELISA, S proteins on plate
[2] = biological target: T1, HCoV-HKU1 S1 (HCoV-HKU1, UniProt Q5MQD0 13-760); assay: Octet binding specificity analysis (FIG. 10)
T1 construct: domain: S1
T1 sequence: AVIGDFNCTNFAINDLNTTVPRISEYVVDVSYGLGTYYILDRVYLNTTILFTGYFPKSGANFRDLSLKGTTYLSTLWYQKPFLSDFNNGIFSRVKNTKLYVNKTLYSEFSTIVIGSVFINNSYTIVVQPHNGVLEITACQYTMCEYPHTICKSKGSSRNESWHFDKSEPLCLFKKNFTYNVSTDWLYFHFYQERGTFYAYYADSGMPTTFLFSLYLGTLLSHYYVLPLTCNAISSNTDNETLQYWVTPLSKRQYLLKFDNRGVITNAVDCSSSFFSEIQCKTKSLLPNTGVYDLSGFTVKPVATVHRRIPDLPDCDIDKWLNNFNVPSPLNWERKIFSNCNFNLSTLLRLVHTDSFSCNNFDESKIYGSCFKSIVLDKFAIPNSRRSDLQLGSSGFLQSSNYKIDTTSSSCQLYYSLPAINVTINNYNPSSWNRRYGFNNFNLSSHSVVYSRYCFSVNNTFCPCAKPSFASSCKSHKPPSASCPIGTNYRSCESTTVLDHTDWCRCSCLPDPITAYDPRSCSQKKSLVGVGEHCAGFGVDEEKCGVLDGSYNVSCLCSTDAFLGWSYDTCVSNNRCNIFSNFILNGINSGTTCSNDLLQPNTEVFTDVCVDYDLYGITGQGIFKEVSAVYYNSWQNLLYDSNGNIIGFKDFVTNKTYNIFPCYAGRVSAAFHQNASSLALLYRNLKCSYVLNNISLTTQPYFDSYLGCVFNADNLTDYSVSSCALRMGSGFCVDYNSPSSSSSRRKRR

Binder | Binding ability [1] | binding result [2]
B1 | 0.8 relative to positive control antibody | –
B2 | 1 relative to positive control antibody | –
B3 | 1.09 relative to positive control antibody | –
B4 | – | no binding
